Measurements from PMC2736960, “Cloning and characterization of a glucosyltransferase from Crocus sativus stigmas involved in flavonoid glucosylation” (BMC Plant Biology, 2009).

Tests used:
Assay type in all cases: biochemical, Crocus sativus
[1] = substrate: O=c1c(O)c(-c2ccc(O)cc2)oc2cc(O)cc(O)c12; test: HPLC of glucoside formed, Lineweaver-Burk; conditions: 7-O-glucoside formation, 2.5 mM UDP-glucose, 50 mM Tris-HCl pH 7.5, 14 mM 2-mercaptoethanol, 30°C
Excerpt: (§1) HPLC of glucoside formed, Lineweaver-Burk on CsGT45

[2] = substrate: O=c1c(O)c(-c2ccc(O)c(O)c2)oc2cc(O)cc(O)c12; test: HPLC of glucoside formed, Lineweaver-Burk; conditions: 7-O-glucoside formation (preferred position), 2.5 mM UDP-glucose, 50 mM Tris-HCl pH 7.5, 14 mM 2-mercaptoethanol, 30°C
Excerpt: as §1

HPLC of glucoside formed = substrate: O=c1ccn([C@@H]2O[C@H](CO[P@@](=O)(O)O[P@@](=O)(O)O[C@H]3O[C@H](CO)[C@@H](O)[C@H](O)[C@H]3O)[C@@H](O)[C@H]2O)c(=O)[nH]1; test: HPLC of glucoside formed; conditions: constant kaempferol as acceptor (level not given)

B1: CsGT45 (Crocus sativus) (protein)
chain: MEQHQPNILVVTYPAQGHINPALHLAKHLAADTKGLLITFSTAISAHRKMFPESTEPDQEVEDGPITYIPFSDGYDDGFQRDKHDGKQFRSRFKTVGSNTLSAIIQNLEHRGRKVSCVIYTFFVSWAADVARQHAIPSVQYWIQPATVFAIYYHYFHGYESVVAAHSHDPSYPINLPGLSPVQVRDLPSFLTIKPDDPYAVVLSMIRDSFEGLDREETKTKVLVNTFGQLEADAILAVDKMDIIPVGPILPCKGGVSRGDLLKEDEKGYMEWLDSKPENSVVYVSLESLAVLKKQQKFLILKGLKDSGRPYLWVVRRDSGLEGVELGDWDGDGDGDNGMVVGWCSQVSVLSHPSVGCFVTHCGWNSTMESLASGVPTIGVPQWSDQPTCAALAEKDWGIGVRSEVNGDGILEGGELKRCLDLVLGDGERGVEIRRKVEFWKDKATEAISFGGSSDKNLRTFVDQITGYDPNVSSVGFWKDKAIHRQHCEESESASPS
[1]
  Km: 15.6 ± 1.2 µM
[2]
  Km: 21.50 ± 2.3 µM
HPLC of glucoside formed
  Km: 600 µM
